± gives the uncertainty stated by the source.

B1: RanBP-type and C3HC4-type zinc finger-containing protein 1, residues 369 to 411; numbered along this chain, Q9BYM8 (parent)
chain: YHCKTPDCKGWCFFEDDVNEFTCPVCFHVNCLLCKAIHEQMNC
B2: Homeobox expressed in ES cells 1, residues 110 to 165; numbered along this chain, Q9UBX0 (parent)
chain: RPRTAFTQNQIEVLENVFRVNCYPGIDIREDLAQKLNLEEDRIQIWFQNRRAKLKR

In the first data set the parent is B1. Put plainly: abundance fitness (aPCA) (normalised: wild type 0, dead -1); higher = more abundant; growth selection in yeast, the domain comes from the species named. The following applies: Homo sapiens.
FHCKTPDCKGWCFFEDDVNEFTCPVCFHVNCLLCKAIHEQMNC [Y1F]: the abundance fitness is -0.282 ± 0.2.

As for GHCKTPDCKGWCFFEDDVNEFTCPVCFHVNCLLCKAIHEQMNC [Y1G], the abundance fitness was -0.331 ± 0.049.

In the case of AHCKTPDCKGWCFFEDDVNEFTCPVCFHVNCLLCKAIHEQMNC [Y1A], the abundance fitness is -0.18 ± 0.093.

Regarding CHCKTPDCKGWCFFEDDVNEFTCPVCFHVNCLLCKAIHEQMNC [Y1C], the abundance fitness is -0.509 ± 0.11.

As to DHCKTPDCKGWCFFEDDVNEFTCPVCFHVNCLLCKAIHEQMNC [Y1D], the abundance fitness is 0.004 ± 0.33.

A further data set covers variants of B2. The description is as above. Conditions: Homo sapiens.
Take E39G: the abundance fitness is -0.154 ± 0.098.

Regarding E39V, the abundance fitness is -0.619 ± 0.12.

In the case of E39M, the abundance fitness was -0.562 ± 0.15.

Consider E39W, for which the abundance fitness is -0.752 ± 0.23.

With E39Q, the abundance fitness is -0.185 ± 0.15.

In the case of E39Y, the abundance fitness is -0.675 ± 0.12.

Take E39K: the abundance fitness is -0.476 ± 0.45.

E39D: the abundance fitness is 0.333 ± 0.33.

As for E39I, the abundance fitness was -1.06 ± 0.36.

E39S: the abundance fitness stood at 0.02 ± 0.082.

With E39N, the abundance fitness is -0.241 ± 0.26.

For the variant E39R, the abundance fitness was -0.34 ± 0.11.

As for E39C, the abundance fitness is -0.104 ± 0.088.

For the variant E39A, the abundance fitness is -0.144 ± 0.18.

With E39L, the abundance fitness was -0.507 ± 0.12.

Consider I45M, for which the abundance fitness was -0.049 ± 0.097.

Turning to I45G, the abundance fitness is -0.031 ± 0.083.

Take I45N: the abundance fitness worked out at 0.166 ± 0.2.

Turning to I45C, the abundance fitness turned out to be 0.196 ± 0.14.

Consider I45E, for which the abundance fitness came out at 0.079 ± 0.13.

Regarding I45H, the abundance fitness is -0.166 ± 0.12.

For I45L, the abundance fitness is -0.026 ± 0.1.

For I45R, the abundance fitness was determined as 0.033 ± 0.099.

For the variant I45K, the abundance fitness turned out to be 0.193 ± 0.19.

Consider I45T, for which the abundance fitness amounted to 0.114 ± 0.11.

Turning to I45D, the abundance fitness is 0.052 ± 0.2.

On to I45F, for which the abundance fitness came to 0.157 ± 0.21.

Consider I45W, for which the abundance fitness was 0.444 ± 0.15.

On to I45Q, for which the abundance fitness was determined as 0.108 ± 0.069.

As to I45Y, the abundance fitness is 0.019 ± 0.26.

For the variant Q48V, the abundance fitness is -0.026 ± 0.12.

Q48G: the abundance fitness was -0.461 ± 0.092.

As to Q48H, the abundance fitness is -0.287 ± 0.33.

Turning to Q48T, the abundance fitness was 0.299 ± 0.14.

In the case of Q48P, the abundance fitness was -0.658 ± 0.5.

Take Q48N: the abundance fitness is -0.307 ± 0.34.

On to Q48A, for which the abundance fitness was determined as 0.233 ± 0.13.

Take Q48K: the abundance fitness is 0.114 ± 0.17.

In the case of Q48I, the abundance fitness is -0.23 ± 0.22.

Consider Q48M, for which the abundance fitness was -0.073 ± 0.097.

In the case of Q48R, the abundance fitness came to 0.142 ± 0.12.

As to Q48S, the abundance fitness was -0.001 ± 0.14.

Q48E: the abundance fitness is -0.098 ± 0.12.

As to Q48C, the abundance fitness is -0.466 ± 0.17.

With R50D, the abundance fitness is -0.443 ± 0.22.

In the case of R50S, the abundance fitness was -0.666 ± 0.22.

Take R50H: the abundance fitness is -0.242 ± 0.34.

R50P: the abundance fitness was -0.954 ± 0.41.

As to R50L, the abundance fitness was -0.818 ± 0.38.

As for R50A, the abundance fitness is -0.206 ± 0.083.

On to R50Q, for which the abundance fitness came out at 0.153 ± 0.2.

With R50T, the abundance fitness is -0.236 ± 0.24.

Turning to R50E, the abundance fitness was determined as 0.178 ± 0.071.

R50C: the abundance fitness was -0.614 ± 0.3.

Regarding R50K, the abundance fitness is -0.39 ± 0.34.

Consider R50V, for which the abundance fitness was -0.727 ± 0.21.

Regarding R50M, the abundance fitness was -0.38 ± 0.26.

Consider R50N, for which the abundance fitness is -0.378 ± 0.3.

R50G: the abundance fitness is -0.782 ± 0.13.

In the case of R42A, the abundance fitness was 0.076 ± 0.11.

On to R42H, for which the abundance fitness is -0.05 ± 0.077.

Take R42L: the abundance fitness is -0.156 ± 0.16.

Regarding R42W, the abundance fitness turned out to be 0.065 ± 0.22.

Take R42K: the abundance fitness stood at 0.184 ± 0.3.

On to R42G, for which the abundance fitness is -0.399 ± 0.11.

In the case of R42Q, the abundance fitness worked out at 0.351 ± 0.3.

For the variant R42V, the abundance fitness turned out to be 0.135 ± 0.072.

In the case of R42E, the abundance fitness amounted to 0.255 ± 0.2.

With R42N, the abundance fitness was 0.049 ± 0.15.

With R42C, the abundance fitness was -0.03 ± 0.12.

Regarding R42T, the abundance fitness was found to be 0.257 ± 0.14.

As for R42D, the abundance fitness was -0.361 ± 0.25.

Take R42S: the abundance fitness amounted to 0.096 ± 0.078.

Consider R42I, for which the abundance fitness was 0.055 ± 0.3.

Consider R42Y, for which the abundance fitness turned out to be 0.037 ± 0.36.

Consider L36M, for which the abundance fitness was -0.11 ± 0.34.

In the case of L36H, the abundance fitness was -0.712 ± 0.13.

Take L36W: the abundance fitness is -0.132 ± 0.097.

On to L36E, for which the abundance fitness was -0.924 ± 0.34.

As to L36R, the abundance fitness is -0.984 ± 0.19.

As for L36D, the abundance fitness was -0.862 ± 0.3.

As to L36V, the abundance fitness was -1.01 ± 0.21.

For the variant L36A, the abundance fitness is -1.01 ± 0.36.

Take L36K: the abundance fitness was -0.931 ± 0.36.

Consider L36F, for which the abundance fitness stood at 0.221 ± 0.2.

L36S: the abundance fitness is -0.855 ± 0.34.

On to L36G, for which the abundance fitness is -0.86 ± 0.15.

L36C: the abundance fitness is -0.508 ± 0.31.

On to D41E, for which the abundance fitness was 0.08 ± 0.1.

As for D41P, the abundance fitness was -0.044 ± 0.15.

With D41N, the abundance fitness is 0.665 ± 0.18.

Turning to D41T, the abundance fitness was determined as 0.023 ± 0.11.

In the case of D41F, the abundance fitness was -0.139 ± 0.12.

Turning to D41S, the abundance fitness turned out to be 0.115 ± 0.11.

As to D41Q, the abundance fitness is -0.012 ± 0.21.

Turning to D41I, the abundance fitness was -0.027 ± 0.17.

With D41C, the abundance fitness was -0.081 ± 0.15.

For the variant D41K, the abundance fitness is -0.174 ± 0.23.

With D41M, the abundance fitness is -0.174 ± 0.14.

As for D41W, the abundance fitness came out at 0.055 ± 0.15.

For D41V, the abundance fitness was -0.095 ± 0.13.

In the case of D41H, the abundance fitness is -0.039 ± 0.31.

D41R: the abundance fitness came to 0.026 ± 0.073.

D41G: the abundance fitness is -0.171 ± 0.094.

Take E40L: the abundance fitness is -0.338 ± 0.13.

Regarding E40R, the abundance fitness is -0.167 ± 0.091.

On to E40N, for which the abundance fitness is -0.614 ± 0.31.

With E40S, the abundance fitness is -0.162 ± 0.1.

Turning to E40C, the abundance fitness is -0.348 ± 0.076.

Take E40A: the abundance fitness stood at 0.052 ± 0.091.

As for E40D, the abundance fitness is -0.119 ± 0.18.

E40K: the abundance fitness is -0.611 ± 0.26.

E40Y: the abundance fitness is -0.57 ± 0.12.

Turning to E40G, the abundance fitness is -0.399 ± 0.13.

On to E40I, for which the abundance fitness was -0.205 ± 0.19.

For the variant E40V, the abundance fitness was -0.244 ± 0.13.

On to E40Q, for which the abundance fitness is -0.047 ± 0.14.

Turning to E40H, the abundance fitness is -0.282 ± 0.17.

As to E40T, the abundance fitness is -0.124 ± 0.11.

Regarding E40F, the abundance fitness is -0.078 ± 0.17.

Regarding E40W, the abundance fitness was -0.928 ± 0.39.

Regarding L54V, the abundance fitness is -0.082 ± 0.13.

For L54Q, the abundance fitness came to 0.01 ± 0.16.

On to L54A, for which the abundance fitness is -0.34 ± 0.12.

Turning to L54I, the abundance fitness stood at 0.074 ± 0.08.

Take L54W: the abundance fitness is -0.205 ± 0.084.

As for L54G, the abundance fitness stood at 0.319 ± 0.1.

In the case of L54K, the abundance fitness was -0.119 ± 0.14.

L54C: the abundance fitness was -0.031 ± 0.11.

As to L54E, the abundance fitness is 0.203 ± 0.085.

For L54F, the abundance fitness turned out to be 0.312 ± 0.17.

On to L54P, for which the abundance fitness was 0.222 ± 0.19.

Take L54D: the abundance fitness is -0.071 ± 0.13.

L54M: the abundance fitness is -0.195 ± 0.22.

With L54R, the abundance fitness was -0.596 ± 0.079.

As for K35Y, the abundance fitness was -0.364 ± 0.29.

K35V: the abundance fitness is -0.694 ± 0.18.

Take K35S: the abundance fitness was -0.487 ± 0.14.

In the case of K35N, the abundance fitness is -0.317 ± 0.15.

Turning to K35P, the abundance fitness was -1.15 ± 0.3.

On to K35F, for which the abundance fitness was -0.603 ± 0.28.

With K35Q, the abundance fitness was -0.197 ± 0.19.

Consider K35R, for which the abundance fitness is -0.194 ± 0.075.

Consider K35E, for which the abundance fitness came out at 0.05 ± 0.13.

For the variant K35C, the abundance fitness was -0.515 ± 0.3.

As for K35H, the abundance fitness was -0.651 ± 0.47.

With K35M, the abundance fitness was -0.377 ± 0.1.

As for K35I, the abundance fitness was -0.468 ± 0.18.

As for K35W, the abundance fitness is -0.743 ± 0.11.

In the case of K35G, the abundance fitness was -0.657 ± 0.14.

On to K53T, for which the abundance fitness was -0.115 ± 0.14.

In the case of K53Q, the abundance fitness worked out at 0.267 ± 0.13.

For the variant K53W, the abundance fitness was -0.405 ± 0.16.

As for K53E, the abundance fitness was determined as 0.176 ± 0.15.

On to K53N, for which the abundance fitness is -0.284 ± 0.41.

K53V: the abundance fitness is -0.229 ± 0.19.

Regarding K53R, the abundance fitness came to 0.059 ± 0.086.

As to K53G, the abundance fitness is -0.141 ± 0.079.

(Values after the Human Domainome abundance scans (Beltran et al. 2025).)
